The DeepSol protein solubility set

Experiment: soluble on expression in E. coli; label from the status in PepcDB or PDB records

Sequence	soluble on expression in E. coli
MSNLDNPGIYYQERFFANDGVPDTGRELIAEYRQLITQFRNFIRDFSTGGFGMIYRDQLKRNYFSHEYRLEINLNHLKNFDEDIEMKLRKFPGKVLPALEEAAKIVADEITTPRPKGEEKLHDIQVTLTLDEYPTSLRQVKSAQVSQVVKISGIIVAAAQVRSKATKVTLQCRQCKHTIPDVSIKPGLEGFALPRTCAAPQQGQMQRCPIDPYIMLPDKCECVDYQTLKLQENPEDVPHGEMPRHLQLFTERYLTDKVVPGNRVTIVGVYSIKKLIQKKGGDKSLQGIRTPYLRVLGIHMETSGPGRTNFTTFTPEEERMFKTLAQRKDAYELIAKSIAPSIYGSADIKKSIACLLFGGARKKLPDGITRRGDINVLLLGDPGTAKSQLLKFVEQVSPIGVYTSGKGSSAAGLTASVIRDPQSRSFIMEGGAMVLADGGVVCIDEFDKMREDDRVAIHEAMEQQTISIAKAGITTTLNSRCSVLAAANSVYGRWDESRGDDNIDFMPTILSRFDMIYIVKDTHDVLKDATLAKHVIEVHVNASAAKERDIAGVPKTATTDSDGVMTMFDTDGFLTIEFLKKFVTYARLNCGPRLTPQASEKLVNHYVKMRNPVVNADAFKSGKKAHNSAIPITVRQLEAIVRIAESIAKMELQQFATDKHVEEALRLFRVSTIEAAATGNLAGVEGFTSTADQEALNRIEVQMKKRFAIGTHVSEHLIVQDFVARQHYRESLVKKVIDNLVRRGDLQQKMQRKMLYRVR	not soluble
MSNLSGTDKSVILLMTIGEDRAAEVFKHLSTREVQALSTAMANVRQISNKQLTDVLSEFEQEAEQFAALNINANEYLRSVLVKALGEERASSLLEDILETRDTTSGIETLNFMEPQSAADLIRDEHPQIIATILVHLKRSQAADILALFDERLRHDVMLRIATFGGVQPAALAELTEVLNGLLDGQNLKRSKMGGVRTAAEIINLMKTQQEEAVITAVREFDGELAQKIIDEMFLFENLVDVDDRSIQRLLQEVDSESLLIALKGAEPPLREKFLRNMSQRAADILRDDLANRGPVRLSQVENEQKAILLIVRRLAETGEMVIGSGEDTYV	not soluble
MSNQQALVIFSGGQDSTTCLIQAIQTYGRENVQAITFQYGQRHAVELERARWIAQDLGVKQTVLDLSLMRQITHNALMDDTAAIETAENGVPNTFVDGRNALFLLYAAIYAKGQGIRHIIAGVCETDFSGYPDCRDVFVKSMNVTLNLAMDYDFQIHTPLMYLTKAQTWALADEMGVLDYIREQTHTCYNGIVGGCRECPSCILRERGLAEYLESKKAV	not soluble
MSNRKYFGTDGIRGRVGDAPITPDFVLKLGWAAGKVLARHGSRKIIIGKDTRISGYMLESALEAGLAAAGLSALFTGPMPTPAVAYLTRTFRAEAGIVISASHNPFYDNGIKFFSIDGTKLPDAVEEAIEAEMEKEISCVDSAELGKASRIVDAAGRYIEFCKATFPNELSLSELKIVVDCANGATYHIAPNVLRELGANVIAIGCEPNGVNINAEVGATDVRALQARVLAEKADLGIAFDGDGDRVIMVDHEGNKVDGDQIMYIIAREGLRQGQLRGGAVGTLMSNMGLELALKQLGIPFARAKVGDRYVLEKMQEKGWRIGAENSGHVILLDKTTTGDGIVAGLQVLAAMARNHMSLHDLCSGMKMFPQILVNVRYTAGSGDPLEHESVKAVTAEVEAALGNRGRVLLRKSGTEPLIRVMVEGEDEAQVTEFAHRIADAVKAV	not soluble
MSNVYWPLYEVFVRGKQGLSHRHVGSLHAADERMALENARDAYTRRSEGCSIWVVKASEIVASQPEERGEFFDPAESKVYRHPTFYTIPDGIEHM	soluble
MSNYEKVYIGTYTNGESRGIYSFNIISDSRKTTAPILSCEIENPTYLTFNMNNKTAYSVIKSGNLGGAASFYVDDRNNHLELLNCKFGYENPPERFSGKQPCYVSLDKTNSYLFSVNYHTSRVDVFPIRNDGSIDTVSSFVIHEGFGPNKERQETSHVHCAVTTPLNDFLCVVDLGTDKIVLYRFDDGILCRFNEFKLKPGCGPRHIIFHPNGKIAYIATELSSEVIVLKYSPLDGSFEELQYVSCLPTDYTGKNGSAAIHISRNSNYLYVSNRGHNSISCFHVDNSTGLLTLNSNTSTYGLSPRDFDLSSSGNLLIAANQDSSNLTIFSVDQVSGNLSKITSDIYVPNPVCVKFYHDKLEHHHHHH	not soluble
MSPEDAITRAELLRRREAGEVTLVDVRPHEEYQAGHIPGAINIPIAELADRLAELAGDRDIVAYCRGAYCVMAPDAVRIARDAGREVKRLDDGMLEWRLAGLPVDEGALEHHHHHH	not soluble
MSPENPFLNHEKKEQERQAKRDAVLLAAVKIFNEQGFHSTSLDDVAKSLGISKPTIYHYLGNKEQVLLTCVEIGLQQLIEAAKDVEKQSISGFEKLRRFLFLYGCRNLDDFGRCVILTHDDALSKEGLVKFKALKRVVHEALLNIIRDAQLDQSINAEHDPKILAATLTGAINWSAKWYNPNGVLSKEETIQKMVDILTYGFEKK	not soluble
MSPKSLLITGANRGIGLGLLKQFLKHKDIQIIIATCRDPSKAEELSNLKDSRLHILPLDIDCDESISKLYAEVEKLVGEDGLTVLLNNAGILLPYDVEGEKNRKTLIRQLETNSVSTALITQEFLPLLKKAAAKNGGDGYSINRAAIVNISSTAASVEKIDGTFNGPLVAYRMSKSALNSFAKSCSIDLAKYHILVTSFCPGWVKTGMGGANAMLEIEDATKTLSDNILTLGNAHHGAYLNADLTVIPN	soluble
MSPMNRQRKNKSHVLNEKDERPGGIIKEKSSVRSMAKTQPPSGRTISLTEINKPNALSKKNTEIKAAVEIQNRLTKKMAKNSERRKQMAHGPEMTAQNRTQERIDFVDFLDRHYQVIQAGVHKIQYTKEEFENVIYEAQTIFSSEKALVDIDPPCVVVGDLHGQFNDLINMFILLGRPPETVYVFTGDYVDRGMMSLECIMLLFTYKICYPENIVLLRGNHEIARVNKKYGFYEECVTSIPKCGEEIWALFQRCFNNLPISALIATKILCMHGGLSPALTCLDELRNHPKPIRNPFRGIVNDMLWADPDPSVFEWKASSRGSGFTFGTNVIDDVCKRLGVELIIRAHQMCFDGYWVLSGRKLITIFSAPMYCNFYKNAGCVLKVDETLGIQMIAFVPASENIEKIIEEKNRVWDISIDCID	not soluble
MSPSASDKPLPPHHAEHMAEAVAEACRGVECGDGGPFGAVVVDSNGKVVAKGHNMVLVTKDPTMHAEMTAIKNACKALGTFDLSGHILYTSCYPCPMCMGGCLWARFDAIYYGATAQQAAEIGFDDKAFHDFLKDPKSDEIRKLEHLAADNYLLPFQMWSNKPDKTEY	soluble
MSQENIIYFSDYICITKGADGFYIESYKKGMSVDEFNKIIGRHPEIKITSFMAIKNAILFAPKPPVKFGEVKDRISVELSSDELKAYIRLCVEEWEFSGDARVKLMEEISKSLEKAGVVFGIKEDVLLDGLCNNKQILIAEGIPPEHGEDAVIRMYEIKKAKPAIKEDGRVDHYELNLINKVKTGDWLGERIDPTPGTAGKSVKGNPIPARPGRNYPLHYDKNSVREERKGGVTYLYALKSGAVHYEGDRISVSNHLEIDGDVDFKTGNINFDGFVTIKGTVADGFSVVAVKDVEILGTIGIGSVKEVVSKEGSIYIKGGIAGKNKAVIKAKKDVYTKYISDATVACEGSLHVGLYCINSNITAREIIIDSPKGQISGGNIQCETKVLSPVLGSPSEKRTVISVKGFNRNTLKERLEEVMKNIETLKNELVKVKAEVNAYFENEQNGKVGSLKAEDIRQRFNRIKNELTELEEEKKAISDTLRTRGEGEISILKKAYPGVVIGIKNIIKEIDRPIVNTTFYIQDGYIKEV	soluble
MSQIKNYMEEVVFSLMKDVLSDINVCSCEKCRMDIAAIALNNLPPKYIVTDKGELYSKVDSLKQQFEVDVISALAKAAVIVKRNPRHE	not soluble
MSQPAKVLLLYAHPESQDSVANRVLLKPAIQHNNVTVHDLYARYPDFFIDTPYEQALLREHDVIVFQHPLYTYSCPALLKEWLDRVLSRGFASGPGGNQLVGKYWRSVITTGEPESAYRYDALNRYPMSDVLRPFELTAAMCRMHWMPPIIVYWARRQSPQTLASHAKAYGEWLANPVSAGGY	not soluble
MSQPCPCGSADEYSLCCGRIVSGERVAPDPSHLMRSRYCAFVMKDADYLIKSWHPTCNAAAFRDDIIAGFANTRWLGLTIFEHTWSEAENTGYVSFIARFSEQGKNGAIIERSRFIKENGQWYYIDGTRPQLGRNDPCPCGSGKKFKKCCGQ	not soluble
